Data as given in patent US20220135680A1 (ABZYME THERAPEUTICS, published 2022).
Substitutions are numbered along the chain they refer to.

B1: Abz497 ScFV (scFv)
scFv: QIQLVQSGAEVAKPGASVKVSCKASGYTFTRYTMHWVRQRPGQGLEWIGYINPSRGYTNYNQKFKDRATLTTDKSTSTAYMELSSLTSEDTAVYYCARYYDDHYCLDYWGQGTTVTVSSVEGGSGGSGGSGGSGGVDDIQLTQSPSSLSASVGDRVTITCRASSSVHYMNWYQQKSGTAPKRWIYDTSKVASGVPYRFSGSGSGTSYTLTISSLQPEDAATYYCQQWSSNPLTFGGGTKVEIKR
notes: also called pH-dependent ScFV antibody variant; not shown: FLAG tag at the C terminus
B2: Abz494 ScFV (scFv)
scFv: B1 scFv with S144P
notes: as for B1

What was measured:
[1] = target: T1, human CD3 receptor on human cells (human, UniProt P07766 23-207; P09693 23-182; P04234 22-171); test: flow cytometry on Jurkat cells (FIG. 5)
T1 construct: whole, on cells; also called human CD3 on cell surface; CD3 on Jurkat cells, clone E6-1
Source text: FIG. 5 presents the cytoflow analysis of Jurkat cells stained with various anti-CD3 antibodies at various pHs.

[2] = target: T1, human CD3 receptor on human cells; test: flow cytometry on human cells (Example 5)

| Binder | binding result [1] | binding result [2] |
| --- | --- | --- |
| B1 | binds |  |
| B2 |  | binds |
